From paper PMC6956818, “Activation of JNK and p38 MAPK Mediated by ZDHHC17 Drives Glioblastoma Multiforme Development and Malignant Progression” (Theranostics, 2020)

Tests used:
[1] = biological target: T1, ZDHHC17 (Homo sapiens, UniProt Q8IUH5); assay: ex vivo kinase assay of ZDHHC17-activated MAP2K4 with JNK2 substrate (western blot); supported by co-IP disruption in U118MG cells and ZDHHC17 mutants; no direct binding measurement; format: biochemical
T1 construct: purified ZDHHC17 (50 ng) with recombinant MAP2K4; with MAP2K4
T1 sequence (Q8IUH5 whole entry): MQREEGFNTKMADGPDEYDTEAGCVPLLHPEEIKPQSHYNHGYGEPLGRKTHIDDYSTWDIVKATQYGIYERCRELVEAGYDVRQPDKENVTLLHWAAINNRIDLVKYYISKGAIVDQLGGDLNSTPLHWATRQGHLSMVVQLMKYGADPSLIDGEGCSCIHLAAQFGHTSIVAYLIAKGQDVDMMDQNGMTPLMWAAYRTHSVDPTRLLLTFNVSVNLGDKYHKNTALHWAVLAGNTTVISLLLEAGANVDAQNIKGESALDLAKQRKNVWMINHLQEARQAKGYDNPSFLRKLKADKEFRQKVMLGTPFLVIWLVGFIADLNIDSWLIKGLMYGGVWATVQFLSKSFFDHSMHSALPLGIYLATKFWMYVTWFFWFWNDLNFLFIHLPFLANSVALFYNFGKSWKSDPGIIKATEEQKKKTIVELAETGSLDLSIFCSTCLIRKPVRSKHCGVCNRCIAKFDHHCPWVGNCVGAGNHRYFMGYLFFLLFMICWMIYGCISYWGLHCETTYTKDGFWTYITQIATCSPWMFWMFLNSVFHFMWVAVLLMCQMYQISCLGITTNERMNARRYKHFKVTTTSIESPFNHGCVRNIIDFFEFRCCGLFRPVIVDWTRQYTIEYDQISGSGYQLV
T1 sequence (P45985 2-399 partner): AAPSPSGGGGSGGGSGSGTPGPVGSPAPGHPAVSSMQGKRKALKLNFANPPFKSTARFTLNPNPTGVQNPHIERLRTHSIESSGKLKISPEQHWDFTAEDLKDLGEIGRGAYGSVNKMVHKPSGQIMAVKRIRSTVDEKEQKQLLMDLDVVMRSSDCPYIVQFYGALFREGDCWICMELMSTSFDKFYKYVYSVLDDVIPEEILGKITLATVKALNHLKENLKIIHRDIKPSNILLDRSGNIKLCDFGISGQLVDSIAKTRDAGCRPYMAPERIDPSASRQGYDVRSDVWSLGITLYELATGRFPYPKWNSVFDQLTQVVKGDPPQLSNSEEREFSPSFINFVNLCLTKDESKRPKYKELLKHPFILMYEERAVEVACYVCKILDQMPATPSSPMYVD

[2] = biological target: Myc-tagged ZDHHC17 ANK (1-7); assay: co-immunoprecipitation, quantified immunoblot; conditions: HEK293 cell lysates; parent: est. 1.0; read off a plot

Molecule	IC50 [1]	ratio to parent [2]
FLAG-tagged MAP2K4 protein kinase c (PKc) domain fragment N222G	–	0.35
FLAG-tagged MAP2K4 protein kinase c (PKc) domain fragment R154G	–	0.73
FLAG-tagged MAP2K4 protein kinase c (PKc) domain fragment W95G	–	0.47

Next, values leading:

IC50 [1]	ratio to parent [2]	Molecule
800 nM	–	O=c1c(-c2ccc(O)cc2)coc2cc(O)cc(O)c12 [genistein]
–	0.85	FLAG-tagged MAP2K4 protein kinase c (PKc) domain fragment E221G
–	0.5	FLAG-tagged MAP2K4 protein kinase c (PKc) domain fragment M153G
–	0.83	FLAG-tagged MAP2K4 protein kinase c (PKc) domain fragment S80G
